The text below walks through data of the DeepSol protein solubility set.

The nature of this data set: soluble on expression in E. coli; label from the status in PepcDB or PDB records.
For the sequence “MSSKEIICQGEELFRLIPQRPPMVMIDRFYGIEENTSWSGLTVTTDNLFCRDGVLQETGIIEHIAQSAAARVGYIYMLRKEPVPLGFIGSVEKMKLFRLPSAGAELYTGITIVQEVFDITLITAEVKENDELLAECRMKIYLKKELEHHHHHH”, the “soluble on expression in E. coli” value is given as “soluble”. Turning to “MSLTETAIENSVTVFHIESDEIKGRIIGREGRNIRALEAATGVEIVVDDTPEAIVLSAFDPVRREIARLALHQLVTDGRIHPARIEEVVAKVRKQVEEEIIETGKRTTIDLGIHGLHPELIRIIGKMKYRSSYGQNLLQHARETANLCAVMASELGLNPKKAKRAGLLHDIGKVPDEEPELPHALLGMKLAEKFKEKPDICNAIGAHHDEIEMTSLLAPIVQVCDAISGARPGARREIVEAYIKRLNDLEQLAMSYPGVTKTYAIQAGRELRVIVGADKIDDKQTENLSGEIAKKIQDEMTYPGQVKITVIRETRAVSFAKEGHHHHHH”, the “soluble on expression in E. coli” value was “soluble”. “MSLKIRDPYIDERTNMVVIRESPDVVRLAERLVELQDRNDSEVVLEVEVLEVSSTKLTQLGVQYPNSFTLTPLSATGASSLTLSDFKGLNSDRIGVSTPNVVLNLRRELGDTDLLANPKIRAKNHEKAKILIGDKLPVITTTSTSTGFVSESVQYIDVGLKLEVEPSISPDDEVSMKINLEVSSLTNQITTRSGTVAYQIGTRTANTVLKLHDGETQLLAGLIKTQQTSSAARIPGLGDIPLLGRLFSSQTDNGVRNEIVLSITPRVVKPSHRPDTNEGHHHHHH”: the “soluble on expression in E. coli” value was “soluble”. Then “MGSDKIHHHHHHETENVNCGQVLAGDTAYLKTVTGEYRIKIAENESLNMSCEAVMDRILSRDHVLRPLENGVAFARVVYMDYELIEKHVEMSYHPQNSFCFAIDKKAAKEFKERMQAMASCLPNVLLLPGRFFKNPIHDLSVDSHGHNTNLAHYNCLRALINKPGWNYAILLQNHDLITKSVYELEKIFNWLGGANDVAIRPELGRLDKKHFKWDPMSLKLFRNESEIDPVILNTTLKFAKGAVQSSLSRAAVDWMTRTVDLTTFIDQWNHGTYGVDEQFTQAFQISDFLGMPGHFTDKCIKKGIITEGITRFAQWTHGDQSKCASKKSRHGICIMGIEHLSMMAKSEHLMFNKVLPLFDYSIIECTAE”, with “not soluble”; and “MKASVRWVECPRDAWQGFSRFIPTEEKVAFLNELLEAGFAHLDLTSFVSPKWVPQMQDAEEVLKALPPPNGRTYLAIVANEKGLERALAAPNLTHVGYPFSLSETFQQRNTNRSIEASWPLVGAMVERTEGRLGLVVYLSMAFGNPYGDPWSVEAVLEALARLKEMGVREIALADTYGVAEPERIHEVLKAAVARFGPEGLGAHLHARPEGALAKVEAVLAAGVTWLEGALAGVGGCPFAGDELVGNLPTEVVLPHLEKRGLATGVDLSRLPLLAEEAARLKALYA”, with “soluble”. Turning to “MSLKSGCSARQVCAGNTHFAVVTVEKELYTWVNMQGGTKLHGQLGHGDKASYRQPKHVEKLQGKAIHQVSCGDDFTVCVTDEGQLYAFGSDYYGCMGVDKVAGPEVLEPMQLNFFLSNPVEQVSCGDNHVVVLTRNKEVYSWGCGEYGRLGLDSEEDYYTPQKVDVPKALIIVAVQCGCDGTFLLTQSGKVLACGLNEFNKLGLNQCMSGIINHEAYHEVPYTTSFTLAKQLSFYKIRTIAPGKTHTAAIDERGRLLTFGCNKCGQLGVGNYKKRLGINLLGGPLGGKQVIRVSCGDEFTIAATDDNHIFAWGNGGNGRLAMTPTERPHGSDICTSWPRPIFGSLHHVPDLSCRGWHTILIVEKVLNSKTIRSNSSGLSIGTVFQSSSEGHHHHHH”, the “soluble on expression in E. coli” value is “not soluble”. Then “MSPLASRALSFLGALSLLTFAATPVLAESTPTAAPPQFAVESPKAASSLLLSVAHAGKRLVAVGDRGHILLSDDDGKTWTQAKVPTRQLLTSVFFVNERKGWAVGHDAQILVSDDAGSTWARQFEDLGREAPLLDIWFADEQHGLAVGAYGALLETRDGGQHWEDVSERLDNEDQFHLNAIAAVKDNGLLVVGEAGSLFRSKDWGATWEKLEGPYEGSLFGAIGTADAGGVLVYGLRGHLFRSADFGDSWEEIPLKAASGDLEFGLSDGALLADGRIVVVGHGGSVLESTDGGRSFSVFNRPDRLSLAGVSATGDGHLILVGQGGVHLAAANGAALEQQQLEHHHHHH”, with “not soluble”; and “MNQKDTRKETLEFNKLQKRLRRNVGNAITDYNMIEEGDVVMACISGGKDSFAMLDILLNLQKAAPIKFEVVAVNLDQKQPGFPEHILPEYFETLNIPYYIVDKDTYSVVKEKVPEGKTTCGLCSRLRRGTLYSFAEKIGATKLALGHHMDDIVETMFLNMFHGSRLKAMPPKLRSDDGRNVVIRPLTYCREKDLIKYAEHKDFPIIPCNL”, with “not soluble”. The result for “MKLQQLRYIVEVVNHNLNVSSTAEGLYTSQPGISKQVRMLEDELGIQIFARSGKHLTQVTPAGQEIIRIAREVLSKVDAIKSVAGEHTWPDKGSLYVATTHTQARYALPGVIKGFIERYPRVSLHMHQGSPTQIAEAVSKGNADFAIATEALHLYDDLVMLPCYHWNRSIVVTPEHPLATKGSVSIEELAQYPLVTYTFGFTGRSELDTAFNRAGLTPRIVFTATDADVIKTYVRLGLGVGVIASMAVDPVSDPDLVKLDANGIFSHSTTKIGFRRSTFLRSYMYDFIQRFAPHLTRDVVDTAVALRSNEDIEAMFKDIKLPEK” reads “soluble”; that for “MEKSLETVPGLDLSGEDIEMYYQYVRFVDRFLRFNRNYQIEYFKLSYPGDGSSEREVDLLKRWIDTVIQLKVKDLDFFDYSWEWGFDNFQLPSTIYICESLVSLKLSTVTLPSVKSVSLPFLRVLKLGAVKFADHLDLETLISGCTALETLAIRFFDRVQVLQVSSQSLLSFTHVAPKLVFTHAVRKPLAEKDLSIVIDAPRLEYLKLSDHQTSSFIIKNPGSLVAVDIDINLSSGFDSRNMIRDFLVGISSVKNMTISSIILKFYDYRFKMLPTFLEICPNLKSLILKSTEELGIKESSMFSGPQDFLPSLEYVEMKMPLKKGLLLEIRMLVGYFLEKATILKKLTLCLDDYRKRKESLIPRILAIPRISTSCEVVVL”, “soluble”. For the sequence “VEPDIRTGTIQDVQHVVILMQENRSFDHYFGHLNGVRGFNDPRALKRQDGKPVWYQNYKYEFSPYHWDTKVTSAQWVSSQNHEWSAFHAIWNQGRNDKWMAVQYPEAMGYFKRGDIPYYYALADAFTLCEAYHQSMMGPTNPNRLYHMSGRAAPSGDGKDVHIGNDMGDGTIGASGTVDWTTYPERLSAAGVDWRVYQEGGYRSSSLWYLYVDAYWKYRLQEQNNYDCNALAWFRNFKNAPRDSDLWQRAMLARGVDQLRKDVQENTLPQVSWIVAPYCYCEHPWWGPSFGEYYVTRVLEALTSNPEVWARTVFILNYDEGDGFYDHASAPVPPWKDGVGLSTVSTAGEIEVSSGLPIGLGHRVPLIAISPWSKGGKVSAEVFDHTSVLRFLERRFGVVEENISPWRRAVCGDLTSLFDFQGAGDTQVAPDLTNVPQSDARKEDAYWQQFYRPSPKYWSYEPKSLPGQEKGQRPTLAVPYQLHATLALDIAAGKLRLTLGNDGMSLPGNPQGHSAAVFQVQPREVGNPRFYTVTSYPVVQESGEELGRTLNDELDDLLDANGRYAFEVHGPNGFFREFHGNLHLAAQMARPEVSVTYQRNGNLQLNIRNLGRLPCSVTVTPNPAYTREGSRRYELEPNQAISEVWLLRSSQGWYDLSVTASNTEANYLRRLAGHVETGKPSRSDPLLDI”, the “soluble on expression in E. coli” value was “not soluble”. Then “MGSDKIHHHHHHMEQYKEVHINSLNKEELEKLAKMGQLIDVRTKEEYELGHINGSTLHPVEEIKSFNKNSNKTYYIHCKSGNRSTKACDYLAKQGYDVVNLKGGYKDYEAKNFNSAPLIEKDIEIKENRKQFDFRGLQCPGPIVNISKEINNISTGEQIEVTVTDPGFNSDIKSWAKQTGNTLVNLTEEANVINAIIQKEKPKEFEINDTATGTTIVLFSGELDKAVAAMIIANGAKAAGKDVTIFFTFWGLNALKKAQSTRVKKKGISKMFDLMLPKDPIHMPLSKMNMFGLGNIMMRYVMNKKNVDSLYSLIDQAIDQDIKLIACTMSMDVMGISKEELRDEVDYGGVGTYIGHTEQANHNLFI”, with “not soluble”; and “MMKRARIIYNPTSGRELFKKSLPEVLQKLEQAGYEASCHATTGPGDATVAARQAADRKFDVVIAAGGDGTLNEVVNGLVGHEHRPKFGIIPVGTTNDFARAIGVPRSIEEAADIICEGKTVPLDLGRANDTYFINIAGGGRITELTYEVPSKLKTVLGQLAYYLKGIEMLPSLHPTYVEIEYDGKLLQEEITMFLITNTRSVGGFEKVAPYASINDGLFDLLVLKKGSIADLIKAATQAQRGEHINNPKVLYTQANRIKVHSPDKLMINLDGEYGGDAPMEFENIYHCLELFVPEHQEDAL”, with “not soluble”. With “MSLQMYAGWRVVVDKNCIKIVSSNLAAQKLIEKQHNARLDTIAAKQQKVELYSVSMATMKELYKLSMQNISGFGTESLYYKEIGSCALDIIRNVPELIKTVSKAKFTNQLYCLTELGGLVMETQQLVGNFVNIVNNAKIPNPLKGEGTAERKSDGYNILDRYERMSLANSIYTNLNEIRYKVDGMMLMAQYATLNDLCFAINPEGWANVMTMRNQVDGLVSDWNGLVATNEGHHHHHH”, the “soluble on expression in E. coli” value is recorded as “soluble”. Then “NGLVDSMIKNAIAWQTSHLQIHQSAYLVNPELKDTIPDSQSIVTTLDKHQSVKAVSERFLADGMIASARSSRGIRINGIHLEQEQKITPLSEHIIDGYWLDEEGRNPILVSQKTAKRLKLRVGSKVILTLSDINGDVSGAAFRVKGIFKTPSTTFDDGNVYVRKADLEKIAGIAGAHEIAILLNANDDDVLQNIVSFTRTLTDDGSGKPLTVRTWLEIQPLLSTMMSSMDISNQ”, with “not soluble”.

As to “SSEDLAKQLASYKAQLQQVEAALSGNGENEDLLKLKKDLQEVIELTKDLLSTQPSETLASSDSFASTQPTHSWKVGDKCMAVWSEDGQCYEAEIEEIDEENGTAAITFAGYGNAEVTPLLNLKPVEEGRKAKEDSGNKPMSKKEMIAQQREYKKKKALKKAQRIKELEQEREDQKVKWQQFNNRAYSKNKKGQVKRSIFASPESVTGKVGVGTCGIADKPMTQYQDTSKYNVRHLMPQ”, the “soluble on expression in E. coli” value is on record as “soluble”. Then “MGSDKIHHHHHHMKDIANTPLVSIICSTYNHGLYISQCLDGFLMQKTNFPFEILIHDDASTDNTPDIIREYEHNHPQVIRPIYQKENKYSKKEDIFAKYQCSRVRGKYIAICEGDDYWIDPLKLQKQIDFLENNPDYGMIYTTSKVYNQKKGKIEEDIIGRKFNGYIELLSGNCIPTLTSCIRSALVMEYLKEVEPKSKNWLMGDYPMWLWISYYHKIKFLPESTTVYRVLEESASHSNDIQKYERFILSTIDITAFYIHKFNTPLTEPYLRSLSCFYYDLYDKYMCLGMYKKARHYSKLINPSYVSARMRRRVRRFHLRFIQIRLAKWFDIKGKERK”, with “not soluble”; and “MAMQLEICANSAASCRQAELGGATRVELCAGIPEGGTTPSAGEMAVARSLIAIPIHVIIRPRAGDFVYSSEEIEAMCYDIRVVRSLGMEGVVFGCLTPEGGYDEEANSRLLKEAQGMQLTFHRAFDVCAAPFEMLEKLIAAGFHRVLTSGCAPTALEGKDMIGALNKQATGRIGIMAGCGIRLGNIETLARHTGITQFHSSLRHDIPSSMRFRRPEVSMGGTVKIDEYSRPETSADMVRQAVDILQGILEHHHHHH”, with “not soluble”. The result for “MVGHKYPVKCLEVDKSKGRLVVSHRRAMAERQMEHLKTGALVEGTVQGVKPYGVFVDVFGTSGLLHISQISHDQVANIQSLFLPGEKVKCMVVSFDKQRGRISLSTKALEPHPGDMLRNKQLVYEKAEEMALSYNQRMDSPVRSKNTTSSSTDDIIAGLDIGSLDDLDPILFGTHTNSSNSNTHSDHLKQDSMNGTIPESDI” reads “not soluble”.

For the sequence “MGTPQGKLKTINGVGKIEDFASTKAKMRVRYPLLITFNYWVLYKSPDKSWFISANPSTEDVWVYARSVPSKAKLNRMMMKVRELGYDVKKLEFPLEHHHHHH”, the “soluble on expression in E. coli” value is “not soluble”.
